From patent US9878045B2, “Triorthogonal reagents for dual protein conjugation” (REGENTS OF THE UNIVERSITY OF MINNESOTA, priority 2013, dated 2018)

T1: PFTase (Saccharomyces cerevisiae, UniProt P22007+P29703)
T1 sequence (P22007 1-431): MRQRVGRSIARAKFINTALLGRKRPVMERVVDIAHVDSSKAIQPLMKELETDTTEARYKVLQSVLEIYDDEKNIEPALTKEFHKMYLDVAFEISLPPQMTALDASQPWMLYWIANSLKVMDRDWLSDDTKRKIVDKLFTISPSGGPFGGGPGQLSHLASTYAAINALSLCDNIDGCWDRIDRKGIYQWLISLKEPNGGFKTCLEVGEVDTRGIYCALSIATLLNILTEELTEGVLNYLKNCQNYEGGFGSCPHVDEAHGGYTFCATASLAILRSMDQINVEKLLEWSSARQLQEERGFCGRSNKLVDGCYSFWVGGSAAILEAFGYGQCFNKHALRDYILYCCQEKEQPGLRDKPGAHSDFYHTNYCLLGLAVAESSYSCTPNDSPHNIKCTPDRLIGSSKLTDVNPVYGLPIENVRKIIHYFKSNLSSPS
T1 sequence (P29703 1-316): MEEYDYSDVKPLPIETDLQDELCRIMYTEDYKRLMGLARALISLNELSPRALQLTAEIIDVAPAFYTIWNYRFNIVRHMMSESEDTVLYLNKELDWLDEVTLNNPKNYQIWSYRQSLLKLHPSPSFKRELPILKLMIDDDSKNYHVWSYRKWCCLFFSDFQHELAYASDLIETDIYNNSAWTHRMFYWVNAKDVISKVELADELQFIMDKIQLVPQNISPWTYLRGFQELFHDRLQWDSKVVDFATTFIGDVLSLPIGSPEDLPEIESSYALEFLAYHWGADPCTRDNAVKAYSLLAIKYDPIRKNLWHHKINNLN

B1: PFTase (Saccharomyces cerevisiae S288C) (protein)
chain 1: MRQRVGRSIARAKFINTALLGRKRPVMERVVDIAHVDSSKAIQPLMKELETDTTEARYKVLQSVLEIYDDEKNIEPALTKEFHKMYLDVAFEISLPPQMTALDASQPWMLYWIANSLKVMDRDWLSDDTKRKIVDKLFTISPSGGPFGGGPGQLSHLASTYAAINALSLCDNIDGCWDRIDRKGIYQWLISLKEPNGGFKTCLEVGEVDTRGIYCALSIATLLNILTEELTEGVLNYLKNCQNYEGGFGSCPHVDEAHGGYTFCATASLAILRSMDQINVEKLLEWSSARQLQEERGFCGRSNKLVDGCYSFWVGGSAAILEAFGYGQCFNKHALRDYILYCCQEKEQPGLRDKPGAHSDFYHTNYCLLGLAVAESSYSCTPNDSPHNIKCTPDRLIGSSKLTDVNPVYGLPIENVRKIIHYFKSNLSSPS
chain 2: MEEYDYSDVKPLPIETDLQDELCRIMYTEDYKRLMGLARALISLNELSPRALQLTAEIIDVAPAFYTIWNYRFNIVRHMMSESEDTVLYLNKELDWLDEVTLNNPKNYQIWSYRQSLLKLHPSPSFKRELPILKLMIDDDSKNYHVWSYRKWCCLFFSDFQHELAYASDLIETDIYNNSAWTHRMFYWVNAKDVISKVELADELQFIMDKIQLVPQNISPWTYLRGFQELFHDRLQWDSKVVDFATTFIGDVLSLPIGSPEDLPEIESSYALEFLAYHWGADPCTRDNAVKAYSLLAIKYDPIRKNLWHHKINNLN
notes: made in house

Tests used:
Test in all cases: Continuous fluorescence-based PFTase enzyme assay, prenylation of N-dansyl-GCVIA (2)
Assay type in all cases: biochemical, Yeast
PFTase = target: T1, PFTase
Method: (§1) Next, a kinetic analysis of that reaction was performed using varying concentrations of 1 and N-dansyl-GCVIA (SEQ ID NO: 2) (2) in the presence of PFTase showing that the enzymatic process obeyed saturation kinetics. Steady-state kinetic parameters for the prenylation reaction using the bifunctional aldehyde-alkyne analogue are shown in FIG. 4. […] Nevertheless, despite this lower activity with 1, using elevated levels of PFTase (200 nM), it is relatively easy to drive these enzymatic reactions to completion in 2 hours.
Enzymatic reaction mixtures contained Tris.HCl (50 mM, pH 7.5), MgCl2 (10 mM), ZnCl2 (10 μM), DTT (5.0 mM), 2.4 μN-dansyl-GCVIA (SEQ ID NO: 2) (2), 0.040% (w/v) n-dodecyl-β-D-maltoside PFTase (80 nM), and varying concentrations of 1 (0-50 μM), in a final volume of 250 μL. The reaction mixtures were equilibrated at 30 ° C. for 1 min, initiated by the addition of PFTase, and monitored for an increase in fluorescence (λex=340 nm, λem=505 nm) for approximately 20 min. The initial rates of formation of products were obtained as slopes in IU/min using least squares analysis. Corrections were applied to all the rate calculations based on the difference between the fluorescence intensity of the prenylated product and the starting peptide. Assuming 100% conversion, the difference corresponds only to the fluorescence of the total amount of the product. […]

[1] = substrate: C#Cc1cc(C=O)cc(OC/C(C)=C/CC/C(C)=C/COP(=O)(O)OP(=O)(O)O)c1; settings: other: single peptide concentration 2.4 μM; pH 7.5; 30.0 °C
Method: as §1
(§2) Enzymatic reaction mixtures contained Tris.HCl (50 mM, pH 7.5), MgCl2 (10 mM), ZnCl2 (10 μM), DTT (5.0 mM), 2.4 μN-dansyl-GCVIA (SEQ ID NO: 2) (2), 0.040% (w/v) n-dodecyl-β-D-maltoside PFTase (80 nM), and varying concentrations of 1 (0-50 μM), in a final volume of 250 μL. The reaction mixtures were equilibrated at 30 ° C. for 1 min, initiated by the addition of PFTase, and monitored for an increase in fluorescence (λex=340 nm, λem=505 nm) for approximately 20 min. The initial rates of formation of products were obtained as slopes in IU/min using least squares analysis. Corrections were applied to all the rate calculations based on the difference between the fluorescence intensity of the prenylated product and the starting peptide. Assuming 100% conversion, the difference corresponds only to the fluorescence of the total amount of the product. The slope was then divided by the fluorescence difference followed by multiplying by the total concentration of peptide (2.4 μM) which then gives the rate of formation of product in μM/s. It should be noted that the KM values reported here are actually apparent KM values, since the measurements were performed in only a single peptide concentration. The data were fit to a Michaelis-Menten model
(§3) [formula] using a nonlinear regression program, to determine kcat and KM (FIG. 4).

[2] = substrate: CC(C)=CCC/C(C)=C/CC/C(C)=C/CO[P@@](=O)(O)OP(=O)(O)O; settings: other: single peptide concentration 2.4 μM; pH 7.5; 30.0 °C
Method: as §1, §2, §3

Row | Molecule | kcat lower than the kcat for FPP (PFTase; compared with FPP) [fold] | substrate for the enzyme (PFTase; model peptide N-dansyl-GCVIA (2)) | Km [1] [µM] | kcat [1] [s⁻¹] | Km [2] [µM]
1 | C#Cc1cc(C=O)cc(OC/C(C)=C/CC/C(C)=C/COP(=O)(O)OP(=O)(O)O)c1 [Compound 1, (2E,6E)-8-(3-ethynyl-5-formylphenoxy)-3,7-dimethylocta-2,6-dien-1-yl diphosphate] | 42 | alternative substrate | – | – | –
2 | B1 | – | – | 2.52 | 0.0123 | 1.71
